Results as given in the Human Domainome abundance scans (Beltran et al. 2025).
± gives the uncertainty stated by the source.

B1: Steroid hormone receptor ERR2, residues 100 to 176; numbered along this chain, O95718 (parent)
chain: KRLCLVCGDIASGYHYGVASCEACKAFFKRTIQGNIEYSCPATNECEITKRRRKSCQACRFMKCLKVGMLKEGVRLD

Variants of: B1
Experiment: abundance fitness (aPCA) (normalised: wild type 0, dead -1); higher = more abundant; growth selection in yeast, the domain comes from the species named
Conditions: Homo sapiens

Variant	abundance fitness
KRLCLVCGDIASGYHYGVASCEACKAFFKRTIQGNIEYSCPATNECEITKRKRKSCQACRFMKCLKVGMLKEGVRLD [R52K]	-0.115 ± 0.086
KRLCLVCGDIASGYHYGVASCEACKAFFKRTIQGNIEYSCPATNECEITKRWRKSCQACRFMKCLKVGMLKEGVRLD [R52W]	-0.043 ± 0.066
KRLCLVCGDIASGYHYGVASCEACKAFFKRTIQGNIEYSCPATNECEITKRNRKSCQACRFMKCLKVGMLKEGVRLD [R52N]	-0.156 ± 0.15
KRLCLVCGDIASGYHYGVASCEACKAFFKRTIQGNIEYSCPATNECEITKRARKSCQACRFMKCLKVGMLKEGVRLD [R52A]	-0.037 ± 0.054
KRLCLVCGDIASGYHYGVASCEACKAFFKRTIQGNIEYSCPATNECEITKRVRKSCQACRFMKCLKVGMLKEGVRLD [R52V]	-0.003 ± 0.057
KRLCLVCGDIASGYHYGVASCEACKAFFKRTIQGNIEYSCPATNECEITKRDRKSCQACRFMKCLKVGMLKEGVRLD [R52D]	-0.242 ± 0.23
KRLCLVCGDIASGYHYGVASCEACKAFFKRTIQGNIEYSCPATNECEITKRCRKSCQACRFMKCLKVGMLKEGVRLD [R52C]	-0.86 ± 0.38
KRLCLVCGDIASGYHYGVASCEACKAFFKRTIQGNIEYSCPATNECEITKRPRKSCQACRFMKCLKVGMLKEGVRLD [R52P]	-0.339 ± 0.1
KRLCLVCGDIASGYHYGVASCEACKAFFKRTIQGNIEYSCPATNECEITKRQRKSCQACRFMKCLKVGMLKEGVRLD [R52Q]	0.128 ± 0.069
KRLCLVCGDIASGYHYGVASCEACKAFFKRTIQGNIEYSCPATNECEITKRFRKSCQACRFMKCLKVGMLKEGVRLD [R52F]	-0.056 ± 0.13
KRLCLVCGDIASGYHYGVASCEACKAFFKRTIQGNIEYSCPATNECEITKRLRKSCQACRFMKCLKVGMLKEGVRLD [R52L]	0.099 ± 0.054
KRLCLVCGDIASGYHYGVASCEACKAFFKRTIQGNIEYSCPATNECEITKRSRKSCQACRFMKCLKVGMLKEGVRLD [R52S]	-0.155 ± 0.068
KRLCLVCGDIASGYHYGVASCEACKAFFKRTIQGNIEYSCPATNECEITKRGRKSCQACRFMKCLKVGMLKEGVRLD [R52G]	0.062 ± 0.045
KRLCLVCGDIASGYHYGVASCEACKAFFKRTIQGNIEYSCPATNECEITKRERKSCQACRFMKCLKVGMLKEGVRLD [R52E]	0.136 ± 0.051
KRLCLVCGDIASGYHYGVASCEACKAFFKRTIQGNIEYSCPATNECEITKRTRKSCQACRFMKCLKVGMLKEGVRLD [R52T]	0.039 ± 0.069
KRLCLVCGDIASGYHYGVASCEACKAFFKRTIQGNIEYSCPATNECEITKRHRKSCQACRFMKCLKVGMLKEGVRLD [R52H]	-0.627 ± 0.32
KRLCLVCGDIASGYHYGVASCEACKAFFKRTIQGNIEYSCPATNECEITKRMRKSCQACRFMKCLKVGMLKEGVRLD [R52M]	-0.084 ± 0.085
KRLCLVCGDIASGYHYGVASCEACKAFFKRTIQGNIEYSCPATNECEITKRYRKSCQACRFMKCLKVGMLKEGVRLD [R52Y]	-0.452 ± 0.21

Variant	abundance fitness
KRLCLVCGDIASGYHYGVASCEACKAFFKRTIQGNIEYSCPATNECEITKIRRKSCQACRFMKCLKVGMLKEGVRLD [R51I]	-0.269 ± 0.11
KRLCLVCGDIASGYHYGVASCEACKAFFKRTIQGNIEYSCPATNECEITKHRRKSCQACRFMKCLKVGMLKEGVRLD [R51H]	-0.08 ± 0.084
KRLCLVCGDIASGYHYGVASCEACKAFFKRTIQGNIEYSCPATNECEITKTRRKSCQACRFMKCLKVGMLKEGVRLD [R51T]	-0.04 ± 0.064
KRLCLVCGDIASGYHYGVASCEACKAFFKRTIQGNIEYSCPATNECEITKMRRKSCQACRFMKCLKVGMLKEGVRLD [R51M]	0.173 ± 0.1
KRLCLVCGDIASGYHYGVASCEACKAFFKRTIQGNIEYSCPATNECEITKSRRKSCQACRFMKCLKVGMLKEGVRLD [R51S]	-0.14 ± 0.066
KRLCLVCGDIASGYHYGVASCEACKAFFKRTIQGNIEYSCPATNECEITKKRRKSCQACRFMKCLKVGMLKEGVRLD [R51K]	-0.002 ± 0.1
KRLCLVCGDIASGYHYGVASCEACKAFFKRTIQGNIEYSCPATNECEITKGRRKSCQACRFMKCLKVGMLKEGVRLD [R51G]	0.033 ± 0.11
KRLCLVCGDIASGYHYGVASCEACKAFFKRTIQGNIEYSCPATNECEITKNRRKSCQACRFMKCLKVGMLKEGVRLD [R51N]	-0.072 ± 0.087
KRLCLVCGDIASGYHYGVASCEACKAFFKRTIQGNIEYSCPATNECEITKWRRKSCQACRFMKCLKVGMLKEGVRLD [R51W]	0.022 ± 0.14
KRLCLVCGDIASGYHYGVASCEACKAFFKRTIQGNIEYSCPATNECEITKYRRKSCQACRFMKCLKVGMLKEGVRLD [R51Y]	-0.384 ± 0.13
KRLCLVCGDIASGYHYGVASCEACKAFFKRTIQGNIEYSCPATNECEITKERRKSCQACRFMKCLKVGMLKEGVRLD [R51E]	0.152 ± 0.12
KRLCLVCGDIASGYHYGVASCEACKAFFKRTIQGNIEYSCPATNECEITKLRRKSCQACRFMKCLKVGMLKEGVRLD [R51L]	-0.097 ± 0.069
KRLCLVCGDIASGYHYGVASCEACKAFFKRTIQGNIEYSCPATNECEITKQRRKSCQACRFMKCLKVGMLKEGVRLD [R51Q]	0.119 ± 0.1
KRLCLVCGDIASGYHYGVASCEACKAFFKRTIQGNIEYSCPATNECEITKFRRKSCQACRFMKCLKVGMLKEGVRLD [R51F]	-0.161 ± 0.096
KRLCLVCGDIASGYHYGVASCEACKAFFKRTIQGNIEYSCPATNECEITKRREKSCQACRFMKCLKVGMLKEGVRLD [R53E]	0.073 ± 0.061
KRLCLVCGDIASGYHYGVASCEACKAFFKRTIQGNIEYSCPATNECEITKRRDKSCQACRFMKCLKVGMLKEGVRLD [R53D]	0.026 ± 0.093
KRLCLVCGDIASGYHYGVASCEACKAFFKRTIQGNIEYSCPATNECEITKRRCKSCQACRFMKCLKVGMLKEGVRLD [R53C]	-0.103 ± 0.08
KRLCLVCGDIASGYHYGVASCEACKAFFKRTIQGNIEYSCPATNECEITKRRAKSCQACRFMKCLKVGMLKEGVRLD [R53A]	0.005 ± 0.051
